US20220290149, “METHOD OF DETECTION OF FIBRIN CLOTS” (I-ZUM-X PTY LTD, published 2022)

Key:
[1] = target: Insoluble cross-linked fibrin / plasma-derived blood clot (Homo sapiens, UniProt P02671-2;P02675;P02679-2 P02671-2:36-644,P02675:45-491,P02679-2:27-437); test: qPCR-based binding assay; settings: tags: clot prepared from citrated plasma plus CaCl2
[2] = target: T1, D-dimer (TGpr1; fibrin clot degradation product DD) (UniProt P02671;P02675;P02679-2 P02671:124-225,P02675:164-491,P02679-2:89-437); test: ELONA; TGpr1/SUBpr1 binding ratio, 500 nM aptamer; settings: chain copies: 2
T1 sequence (P02671 124-225, chain 1 of 3): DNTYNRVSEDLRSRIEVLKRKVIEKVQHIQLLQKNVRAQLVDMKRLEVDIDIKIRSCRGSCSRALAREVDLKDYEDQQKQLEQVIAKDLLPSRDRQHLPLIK
T1 sequence (P02675 164-491, chain 2 of 3): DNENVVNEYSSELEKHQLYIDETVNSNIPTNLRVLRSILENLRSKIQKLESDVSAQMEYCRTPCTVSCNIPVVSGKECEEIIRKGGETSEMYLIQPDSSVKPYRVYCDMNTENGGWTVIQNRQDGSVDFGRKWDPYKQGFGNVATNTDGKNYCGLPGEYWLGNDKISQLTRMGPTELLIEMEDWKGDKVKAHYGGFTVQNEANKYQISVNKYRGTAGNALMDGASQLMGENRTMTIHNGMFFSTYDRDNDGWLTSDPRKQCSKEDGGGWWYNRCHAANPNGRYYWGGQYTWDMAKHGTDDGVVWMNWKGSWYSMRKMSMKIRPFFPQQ
T1 sequence (P02679 other isoform, or with tags, fused parts or gaps, chain 3 of 3): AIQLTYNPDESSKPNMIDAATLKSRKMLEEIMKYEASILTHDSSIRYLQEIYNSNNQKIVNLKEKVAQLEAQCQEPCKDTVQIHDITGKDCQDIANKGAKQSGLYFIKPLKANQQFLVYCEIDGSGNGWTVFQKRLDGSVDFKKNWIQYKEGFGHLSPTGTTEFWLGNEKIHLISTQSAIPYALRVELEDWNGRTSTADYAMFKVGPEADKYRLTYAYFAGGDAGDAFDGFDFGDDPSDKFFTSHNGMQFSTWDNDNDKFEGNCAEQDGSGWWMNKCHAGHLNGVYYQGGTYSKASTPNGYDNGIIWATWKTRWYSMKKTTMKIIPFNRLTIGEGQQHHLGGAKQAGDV
Description: FIG. 6 is a graph of the relative fluorescence of five aptamers to TGpr-1 protein and SUBpr-1 protein. The test was performed with an ELONA method with fixed aptamer concentration (500 nM) and protein amount (2 ug/well). *p<0.01.

[3] = target: T1, D-dimer (TGpr1; fibrin clot degradation …); test: ELONA; settings: chain copies: 2
[4] = target: T1, D-dimer (TGpr1; fibrin clot degradation …); test: ELONA; considered non-specific; settings: chain copies: 2; label: 5' biotin
[5] = target: T1, D-dimer (TGpr1; fibrin clot degradation …); test: ELONA; unit printed as Nm; settings: chain copies: 2
[6] = target: T1, D-dimer (TGpr1; fibrin clot degradation …); test: ELONA; 100 nM aptamer; settings: chain copies: 2; label: 5' FAM (ELONA and imaging)
Fibrinogen = Fibrinogen (UniProt P02671-2;P02675;P02679-2 P02671-2:20-644,P02675:31-491,P02679-2:27-437); test: ELONA; 100 nM aptamer; settings: chain copies: 2; label: 5' FAM (ELONA and imaging)
Chain of Fibrinogen (P02671 other isoform, or with tags, fused parts or gaps, chain 1 of 3): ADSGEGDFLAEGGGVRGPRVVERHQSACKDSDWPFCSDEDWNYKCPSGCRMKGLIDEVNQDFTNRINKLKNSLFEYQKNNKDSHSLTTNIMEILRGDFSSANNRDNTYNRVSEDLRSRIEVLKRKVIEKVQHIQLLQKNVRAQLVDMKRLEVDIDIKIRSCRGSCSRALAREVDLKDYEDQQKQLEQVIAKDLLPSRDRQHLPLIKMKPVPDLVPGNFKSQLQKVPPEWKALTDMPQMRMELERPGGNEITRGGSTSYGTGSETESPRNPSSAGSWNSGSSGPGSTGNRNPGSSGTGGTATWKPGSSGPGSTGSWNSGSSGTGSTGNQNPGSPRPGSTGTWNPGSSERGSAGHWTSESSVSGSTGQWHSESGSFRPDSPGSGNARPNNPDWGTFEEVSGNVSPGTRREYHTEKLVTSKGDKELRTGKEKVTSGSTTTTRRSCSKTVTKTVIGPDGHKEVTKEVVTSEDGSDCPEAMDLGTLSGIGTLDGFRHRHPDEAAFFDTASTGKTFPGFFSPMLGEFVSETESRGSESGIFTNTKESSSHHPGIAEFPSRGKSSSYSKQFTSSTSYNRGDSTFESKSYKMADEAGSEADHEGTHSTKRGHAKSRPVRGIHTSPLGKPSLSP
Chain of Fibrinogen (P02675 31-491, chain 2 of 3): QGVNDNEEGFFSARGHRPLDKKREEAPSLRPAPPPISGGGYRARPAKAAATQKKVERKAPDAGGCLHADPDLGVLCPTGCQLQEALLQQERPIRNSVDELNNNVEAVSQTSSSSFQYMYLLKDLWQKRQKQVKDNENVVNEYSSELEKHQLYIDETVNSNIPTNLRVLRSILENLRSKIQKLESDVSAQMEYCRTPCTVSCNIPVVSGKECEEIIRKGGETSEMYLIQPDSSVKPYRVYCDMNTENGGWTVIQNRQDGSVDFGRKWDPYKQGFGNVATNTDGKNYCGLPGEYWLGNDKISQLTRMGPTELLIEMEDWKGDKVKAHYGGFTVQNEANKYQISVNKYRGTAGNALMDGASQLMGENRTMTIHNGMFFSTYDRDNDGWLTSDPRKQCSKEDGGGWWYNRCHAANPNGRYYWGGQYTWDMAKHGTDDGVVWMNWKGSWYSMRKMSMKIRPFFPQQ
Chain of Fibrinogen (P02679 other isoform, or with tags, fused parts or gaps, chain 3 of 3): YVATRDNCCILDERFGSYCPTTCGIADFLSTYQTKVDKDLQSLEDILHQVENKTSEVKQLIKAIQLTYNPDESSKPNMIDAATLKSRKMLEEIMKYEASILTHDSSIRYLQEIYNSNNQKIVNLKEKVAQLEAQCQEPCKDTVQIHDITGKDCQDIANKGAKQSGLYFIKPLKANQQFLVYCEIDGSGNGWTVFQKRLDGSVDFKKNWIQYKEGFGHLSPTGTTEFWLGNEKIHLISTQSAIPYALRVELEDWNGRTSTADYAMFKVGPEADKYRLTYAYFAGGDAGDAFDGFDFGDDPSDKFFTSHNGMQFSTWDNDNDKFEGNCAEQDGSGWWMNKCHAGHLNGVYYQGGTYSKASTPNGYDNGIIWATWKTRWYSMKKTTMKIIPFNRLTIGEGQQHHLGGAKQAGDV

Chain of Insoluble cross-linked fibrin / plasma-derived blood clot (P02671 other isoform, or with tags, fused parts or gaps, chain 1 of 3): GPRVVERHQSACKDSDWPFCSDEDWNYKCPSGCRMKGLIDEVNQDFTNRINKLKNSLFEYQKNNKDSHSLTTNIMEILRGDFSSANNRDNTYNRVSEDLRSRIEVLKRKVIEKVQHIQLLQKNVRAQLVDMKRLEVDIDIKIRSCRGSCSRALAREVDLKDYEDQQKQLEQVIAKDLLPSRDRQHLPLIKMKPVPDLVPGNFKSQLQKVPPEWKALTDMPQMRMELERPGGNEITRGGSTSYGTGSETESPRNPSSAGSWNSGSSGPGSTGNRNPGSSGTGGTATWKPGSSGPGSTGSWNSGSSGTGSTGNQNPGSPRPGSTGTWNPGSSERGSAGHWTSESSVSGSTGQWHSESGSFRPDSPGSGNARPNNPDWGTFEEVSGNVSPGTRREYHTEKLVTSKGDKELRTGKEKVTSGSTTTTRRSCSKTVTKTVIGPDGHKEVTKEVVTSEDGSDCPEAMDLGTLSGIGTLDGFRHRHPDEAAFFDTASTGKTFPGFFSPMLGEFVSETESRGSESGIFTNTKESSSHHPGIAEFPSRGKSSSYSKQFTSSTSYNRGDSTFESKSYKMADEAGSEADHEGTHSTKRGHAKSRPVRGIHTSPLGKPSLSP
Chain of Insoluble cross-linked fibrin / plasma-derived blood clot (P02675 45-491, chain 2 of 3): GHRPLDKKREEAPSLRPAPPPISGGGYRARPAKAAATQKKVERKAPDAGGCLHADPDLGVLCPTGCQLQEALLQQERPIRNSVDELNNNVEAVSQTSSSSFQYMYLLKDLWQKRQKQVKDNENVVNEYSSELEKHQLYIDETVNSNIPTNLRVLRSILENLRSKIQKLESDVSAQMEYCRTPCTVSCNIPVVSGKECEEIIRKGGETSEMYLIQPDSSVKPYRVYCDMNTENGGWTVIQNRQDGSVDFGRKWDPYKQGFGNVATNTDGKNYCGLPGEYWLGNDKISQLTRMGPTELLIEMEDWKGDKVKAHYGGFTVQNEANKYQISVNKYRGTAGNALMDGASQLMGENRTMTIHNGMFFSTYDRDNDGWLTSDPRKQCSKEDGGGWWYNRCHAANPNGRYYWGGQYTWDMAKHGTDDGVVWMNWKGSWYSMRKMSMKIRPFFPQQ

B1: RNV606 (ssDNA)
DNA: GGACAGGACCACACCCAGCGGATAACTAGGCACCCGGTGTCGTTATTATGACAAGATATTGGCTCCTGTGTGTCGCTTTGT
[1]
  binding result: binds

## ACAGTGTGGGCGGGCGGGTGGTTTGGAGCTGGTAGCGGTA (ssDNA) [AP10-01]
[2]
  binding signal: 4.21 ratio
[3]
  Kd: 54 nM

## AAGGGAAAGTGTATACACTATGGCT (ssDNA) [EM9-02]
[2]
  binding signal: 1.85 ratio

B2: RNV607 (ssDNA)
DNA: GGACAGGACCACACCCAGCGAGGAAATATTTAGGCACCCGGTCTCTGAAAATATTGTGCTGGCTCCTGTGTGTCGCTTTGT
[1]
  binding result: binds

B3: RNV604 (ssDNA)
DNA: GGACAGGACCACACCCAGCGGATACCTGAAGCTGGCCCACATTTATCTACGCGATATATTGGCTCCTGTGTGTCGCTTTGT
[1]
  binding result: binds

B4: EM1 (ssDNA)
DNA: ACAAAGCGACACACAGGAGCCCAATGATGCTGTTATGGCGCTTTGTGGACAGGACCACACCCAGCG
[4]
  Kd: > 1000 nM

B5: AP1 (ssDNA)
DNA: ACAAAGCGACACACAGGAGCCCGGTCGGCGGGGGGGCGGGTGGAGAACGAGGTAGGGGTCAGGACAGGACCACACCCAGCG
[4]
  Kd: > 1000 nM

B6: AP3 (ssDNA)
DNA: ACAAAGCGACACACAGGAGCCCGGTCGGCGGGTGGGCGGGTGGAGAACGAGGTAGGGGTCAGGACAGGACCACACCCAGCG
[4]
  Kd: > 1000 nM

B7: AP10-01-81 (ssDNA)
DNA: GGACAGGACCACACCCAGCGACAGTGTGGGCGGGCGGGTGGTTTGGAGCTGGTAGCGGTAGGCTCCTGTGTGTCGCTTTGT
[5]
  Kd: 59 nM

B8: RNV605 (ssDNA)
DNA: GGACAGGACCACACCCAGCGATAATTAGGCATCCGGTCGCCAACCTTGGAGAAACTATCTGGCTCCTGTGTGTCGCTTTGT
[6]
  binding result: no binding
Fibrinogen
  binding result: no binding

B9: RNV602 (ssDNA)
DNA: GGACAGGACCACACCCAGCGTAATAATATGGGGCTTGCGGTCCCCGATTTTTATGCACACGGCTCCTGTGTGTCGCTTTGT
[6]
  binding result: no binding
Fibrinogen
  binding result: no binding

B10: RNV603 (ssDNA)
DNA: GGACAGGACCACACCCAGCGTGCGTGAAATTCGGGGCATGGTTAGGATAGGTAATATTTTGGCTCCTGTGTGTCGCTTTGT
[1]
  binding result: binds
